Assay results published in publication doi:10.1101/2022.04.03.486873 (bioRxiv, 2022).

T1: UPF2L (120-1227) (UniProt Q9HAU5 120-1227)
T1 sequence: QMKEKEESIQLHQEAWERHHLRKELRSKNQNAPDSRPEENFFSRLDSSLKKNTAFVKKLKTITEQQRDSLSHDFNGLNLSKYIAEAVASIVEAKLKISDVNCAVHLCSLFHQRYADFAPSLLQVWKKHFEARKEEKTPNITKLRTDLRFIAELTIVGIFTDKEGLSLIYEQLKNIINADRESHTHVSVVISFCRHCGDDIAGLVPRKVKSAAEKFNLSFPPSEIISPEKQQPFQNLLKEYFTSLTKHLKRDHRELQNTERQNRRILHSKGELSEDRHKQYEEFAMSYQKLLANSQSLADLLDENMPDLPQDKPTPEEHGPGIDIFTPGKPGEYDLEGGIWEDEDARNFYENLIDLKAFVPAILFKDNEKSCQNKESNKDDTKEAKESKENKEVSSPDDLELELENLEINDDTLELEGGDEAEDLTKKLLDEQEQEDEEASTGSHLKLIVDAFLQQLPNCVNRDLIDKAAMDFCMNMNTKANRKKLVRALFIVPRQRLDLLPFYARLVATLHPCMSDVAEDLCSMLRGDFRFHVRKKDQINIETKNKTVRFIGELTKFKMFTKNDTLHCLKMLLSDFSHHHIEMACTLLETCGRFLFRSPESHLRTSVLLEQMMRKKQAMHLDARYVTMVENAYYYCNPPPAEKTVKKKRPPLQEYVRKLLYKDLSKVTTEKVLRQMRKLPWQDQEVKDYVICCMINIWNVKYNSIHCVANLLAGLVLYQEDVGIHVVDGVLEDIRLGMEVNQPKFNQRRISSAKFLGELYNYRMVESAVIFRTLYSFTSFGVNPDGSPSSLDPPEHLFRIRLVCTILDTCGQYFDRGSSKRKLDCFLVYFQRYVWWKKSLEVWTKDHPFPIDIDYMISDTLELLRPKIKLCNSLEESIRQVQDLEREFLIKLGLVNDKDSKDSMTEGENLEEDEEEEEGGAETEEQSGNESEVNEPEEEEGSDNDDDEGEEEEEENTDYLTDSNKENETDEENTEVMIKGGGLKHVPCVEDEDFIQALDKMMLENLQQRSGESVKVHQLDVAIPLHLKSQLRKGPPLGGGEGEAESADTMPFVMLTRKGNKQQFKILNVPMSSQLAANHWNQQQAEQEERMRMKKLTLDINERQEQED

B1: UPF3B-41-189 (domain or fragment)
chain: DRNKEKKEALSKVVIRRLPPTLTKEQLQEHLQPMPEHDYFEFFSNDTSLYPHMYARAYINFKNQEDIILFRDRFDGYVFLDNKGQEYPAIVEFAPFQKAAKKKTKKRDTKVGTIDDDPEYRKFLESYATDNEKMTSTPETLLEEIEAKN
B2: UPF3B-41-189 F163A (domain or fragment)
chain: DRNKEKKEALSKVVIRRLPPTLTKEQLQEHLQPMPEHDYFEFFSNDTSLYPHMYARAYINFKNQEDIILFRDRFDGYVFLDNKGQEYPAIVEFAPFQKAAKKKTKKRDTKVGTIDDDPEYRKALESYATDNEKMTSTPETLLEEIEAKN
B3: UPF3B-41-189 Y160A (domain or fragment)
chain: DRNKEKKEALSKVVIRRLPPTLTKEQLQEHLQPMPEHDYFEFFSNDTSLYPHMYARAYINFKNQEDIILFRDRFDGYVFLDNKGQEYPAIVEFAPFQKAAKKKTKKRDTKVGTIDDDPEARKFLESYATDNEKMTSTPETLLEEIEAKN
B4: UPF3B-41-189 Y160A+Y167A (domain or fragment)
chain: DRNKEKKEALSKVVIRRLPPTLTKEQLQEHLQPMPEHDYFEFFSNDTSLYPHMYARAYINFKNQEDIILFRDRFDGYVFLDNKGQEYPAIVEFAPFQKAAKKKTKKRDTKVGTIDDDPEARKFLESAATDNEKMTSTPETLLEEIEAKN
B5: UPF3B-41-189 Y160D (domain or fragment)
chain: DRNKEKKEALSKVVIRRLPPTLTKEQLQEHLQPMPEHDYFEFFSNDTSLYPHMYARAYINFKNQEDIILFRDRFDGYVFLDNKGQEYPAIVEFAPFQKAAKKKTKKRDTKVGTIDDDPEDRKFLESYATDNEKMTSTPETLLEEIEAKN
B6: UPF3B-41-189 Y160D+Y167D (domain or fragment)
chain: DRNKEKKEALSKVVIRRLPPTLTKEQLQEHLQPMPEHDYFEFFSNDTSLYPHMYARAYINFKNQEDIILFRDRFDGYVFLDNKGQEYPAIVEFAPFQKAAKKKTKKRDTKVGTIDDDPEDRKFLESDATDNEKMTSTPETLLEEIEAKN
B7: UPF3B-41-189 Y167A (domain or fragment)
chain: DRNKEKKEALSKVVIRRLPPTLTKEQLQEHLQPMPEHDYFEFFSNDTSLYPHMYARAYINFKNQEDIILFRDRFDGYVFLDNKGQEYPAIVEFAPFQKAAKKKTKKRDTKVGTIDDDPEYRKFLESAATDNEKMTSTPETLLEEIEAKN
B8: UPF3B-41-189 Y167D (domain or fragment)
chain: DRNKEKKEALSKVVIRRLPPTLTKEQLQEHLQPMPEHDYFEFFSNDTSLYPHMYARAYINFKNQEDIILFRDRFDGYVFLDNKGQEYPAIVEFAPFQKAAKKKTKKRDTKVGTIDDDPEYRKFLESDATDNEKMTSTPETLLEEIEAKN
B9: UPF3A-58-206-Iso1 (domain or fragment)
chain: KPREEKRTALSKVVIRRLPPGLTKEQLEEQLRPLPAHDYFEFFAADLSLYPHLYSRAYINFRNPDDILLFRDRFDGYIFLDSKGLEYPAVVEFAPFQKIAKKKLRKKDAKTGSIEDDPEYKKFLETYCVEEEKTSANPETLLGEMEAKT
B10: UPF3B-41-143 (domain or fragment)
chain: DRNKEKKEALSKVVIRRLPPTLTKEQLQEHLQPMPEHDYFEFFSNDTSLYPHMYARAYINFKNQEDIILFRDRFDGYVFLDNKGQEYPAIVEFAPFQKAAKKK
B11: Avi-UPF2-MIF4GIII (biotinylated) (domain or fragment)
chain: EKTVKKKRPPLQEYVRKLLYKDLSKVTTEKVLRQMRKLPWQDQEVKDYVICCMINIWNVKYNSIHCVANLLAGLVLYQEDVGIHVVDGVLEDIRLGMEVNQPKFNQRRISSAKFLGELYNYRMVESAVIFRTLYSFTSFGVNPDGSPSSLDPPEHLFRIRLVCTILDTCGQYFDRGSSKRKLDCFLVYFQRYVWWKKSLEVWTKDHPFPIDIDYMISDTLELLRPKIKLCNSLEESIRQVQDLEREFLIKLGLVNDKDSKDSMTEGENLEEDEEEEEGGAETEEQSGNESEVNE
modifications: biotin on the Avi tag (BirA)
B12: UPF3B-FL (residues 1-470) (natural protein)
chain: MKEEKEHRPKEKRVTLLTPAGATGSGGGTSGDSSKGEDKQDRNKEKKEALSKVVIRRLPPTLTKEQLQEHLQPMPEHDYFEFFSNDTSLYPHMYARAYINFKNQEDIILFRDRFDGYVFLDNKGQEYPAIVEFAPFQKAAKKKTKKRDTKVGTIDDDPEYRKFLESYATDNEKMTSTPETLLEEIEAKNRELIAKKTTPLLSFLKNKQRMREEKREERRRREIERKRQREEERRKWKEEEKRKRKDIEKLKKIDRIPERDKLKDEPKIKLLKKPEKGDEKELDKREKAKKLDKENLSDERASGQSCTLPKRSDSELKDEKPKRPEDESGRDYREREREYERDQERILRERERLKRQEEERRRQKERYEKEKTFKRKEEEMKKEKDTLRDKGKKAESTESIGSSEKTEKKEEVVKRDRIRNKDRPAMQLYQPGARSRNRLCPPDDSTKSGDSAAERKQESGISHRKEGGEE

What follows are molecules tested against B11 (assay: SPR).
B1 gave a Kd of 3.6 nM.
B2 was tested, and the Kd was 90 nM.
With B3 the Kd was 88 nM.
With B4 the Kd was ~130 nM.
B5 gave a Kd of 140 nM.
Molecule B6 has a Kd of ~130 nM.
With B7 the Kd was 3.3 nM.
Molecule B8 has a Kd of 7.4 nM.
Work on B9 yielded a Kd of 0.22 nM.
Molecule B10 has a Kd of 720 nM.

What follows are molecules tested against B12 (assay: SPR).
B11 gave a Kd of 0.47 nM.

These molecules were tested against T1, UPF2L (120-1227) (assay: native gel or EMSA).
B12: binds.

These molecules were tested against Avi-UPF2-MIF4GIII (biotinylated) (UniProt Q9HAU5) (assay: SPR).
“full-length UPF3A-WT (from UniProt Q9H1J1 1-476) (natural protein)” showed a Kd of 0.048 nM.
